We go through two substances from US20080260727A1.

For experiment [1], the target named is 8.3 TcR. The experiment in a line: tetramer staining, flow cytometry on CD8+ T cells of 8.3 TcR-transgenic NOD mice. Background: In flow cytometry, cells or beads pass a laser one at a time.
For experiment [2], the target named is human NKG2D (human) (UniProt P26718). The experiment in a line: flow cytometry on NKL cells, biotin mAb on ice 30 min, then 16 h at 37° C., APC-streptavidin (antibody left on the surface after culture).
Chain of UniProt P26718 (P26718 whole entry T72A): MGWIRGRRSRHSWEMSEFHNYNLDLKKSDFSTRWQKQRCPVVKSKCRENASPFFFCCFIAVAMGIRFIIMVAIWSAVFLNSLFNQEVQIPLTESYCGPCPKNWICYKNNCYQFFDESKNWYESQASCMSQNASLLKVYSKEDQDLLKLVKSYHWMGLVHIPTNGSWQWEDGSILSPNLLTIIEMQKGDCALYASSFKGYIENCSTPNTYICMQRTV
Experiment [3] has the same target. Description: cell-based or functional assay.
For experiment [4] the target is unchanged. The experiment in a line: flow cytometry on NKL cells, biotin mAb on ice 30 min, APC-streptavidin, before culture (0 h).

In the case of “NRP-V7/H-2K^d tetramer (from UniProt P01902 22-305) (peptide-MHC)”, the percent of CD8+ T cells tetramer positive in experiment [1] was over 90%.

With “mouse anti-human NKG2D mAb (R&D Systems clone 149810) (antibody)”, the mean fluorescence intensity (arbitrary units) (arbitrary units) in experiment [2] stood at 61; in experiment [4], 186. Besides, the decrease in expression of NKG2D on the cell surface in experiment [3] is 67%.
